Data from patent publication US20040101829A1, “Protein that interacts with lipids and methods for treating hyperlipidemia” (The University of Iowa Research Foundation, priority 2002, published 2004).

Legend:
[1] = tested on: human LDL; test: ELISA for E2-LDL interaction (anti-LDL McAb capture, anti-E2 McAb detection); assay type: binding
Description: FIG. 2: Interaction of E2 with LDL. Increasing amounts of LDL were incubated with purified E2 protein at 4° C. and allowed to bind to mouse monoclonal anti-apolipoprotein B antibody coated in ELISA plates. LDL bound E2 protein was detected with a monoclonal anti-E2 antibody, followed by an alkaline-phosphatase labeled secondary antibody and PNPP substrate. The subtracted blank consisted of E2 protein in the absence of LDL.
Microtiter plates were prepared by coating wells with 100 μl anti-LDL McAb (4 μg/ml in 100 mM bicarbonate buffer, pH 9.6) overnight (ON) at RT (Wuenschmann et al., 2000). […] Plates were washed twice with TBS followed by the addition of 100 μl of E2 protein or E2 protein with LDL in PBS. After ON incubation of samples at RT, plates were washed three times with TBS followed by the addition of anti HCV E2 McAb 108 (7.5 μg/ml). Plates were incubated for 1.5 h and washed three times with TBS; then 100 μl of anti-human IgG-alkaline phosphatase conjugate (Promega, Madison, Wis.) diluted 1/5,000 in BLOTTO was added for 1 h at RT washed four times with TBS, and incubated for 30 min with a 1-mg/ml solution of p-nitrophenyl phosphate (PNPP). Absorbance was measured at 405 nm with a multiwell plate reader. […]

[2] = tested on: MOLT-4 cells; test: Cell binding assay by flow cytometry, MOLT-4 cells; assay type: cell-based, human
Description: (§1) MOLT-4 cells, a CD4^+ T lymphoblastoid cell line, and Huh7 cells of hepatocyte origin were obtained from ATCC (Manassas, Va.). Human foreskin fibroblasts (FSF) and LDLr-deficient foreskin fibroblasts (Null) from a patient with familial hypercholesterolemia (Hobbs et al., 1987) were kindly provided by Dr. Jheem Medh.
(§2) Recombinant HCV E2 protein or HIV-gp120-FITC, human, rabbit or bovine lipoproteins, HCV or mock virus preparations were added to cells for 60 min at 4° C. Cells were washed and incubated with ligand-specific antibody for 60 min at 4° C. Antibody binding was detected using goat anti-human IgG-Oregon green (10 μg/ml) for 45 min at 4° C. Cells were washed two times, fixed in PBS containing 4% paraformaldehyde, and analyzed by flow cytometry (FACScan, Becton Dickinson).
HCV-E2 was incubated with increasing concentrations of human LDL for one hour at 4° C. prior to the addition of proteins to MOLT-4 cells. Following one hour at 4° C., cells were washed and HCV E2 binding was detected by flow cytometry. […] The increase in E2 binding in the presence of LDL was seen when either the anti-HCV McAb or anti-HCV polyclonal anti-HCV were used for E2 detection (FIG. 3B). […] To determine if HCV E2 influenced binding of human LDL to MOLT-4 cells, HCV-E2 and fluorescently labeled LDL were incubated for one hour at 4° C. and added to MOLT-4 cells for an additional hour. Cells were washed and analyzed for labeled-LDL binding (FIG. 3E and FIG. 3F).

[3] = tested on: Huh-7 cells; test: Cell binding assay by flow cytometry, Huh-7 cells; assay type: cell-based, human; conditions: 4° C.
Description: FIG. 3A; FIG. 3B; and FIG. 3C: Incubation of LDL enhanced binding of HCV E2. […] Cell-bound E2 was detected using a monoclonal antiE2 antibody (FIG. 3A and FIG. 3C) or a polyclonal anti-E2 serum (FIG. 3B).
as §1, §2

[4] = tested on: 3T3 cells expressing human CD81; test: Cell binding assay by flow cytometry, mouse 3T3 cells with or without human CD81; assay type: cell-based
Description: FIG. 4B: Binding of recombinant HCV E2 to mouse 3T3 cells. Cells were detached non-enzymatically and incubated with recombinant E2 protein. Cell-bound E2 was detected with monoclonal anti-E2 antibody 108, followed by incubation with a secondary fluorescent labeled anti-human IgG. Cells were analyzed by flow cytometry.
FIG. 4C: Binding of HCV E2 and HCV-E2/LDL to mouse 3T3-human CD81 cells. Cells were detached non-enzymatically and incubated with E2 alone or E2/LDL. Cell-bound E2 was detected with monoclonal anti-E2 antibody 108, followed by incubation with a secondary fluorescent labeled anti-human IgG. Cells were analyzed by flow cytometry.
as §2
The increased level of binding of both proteins to MOLT-4 cells may be due to an association between LDL and HCV E2 that enables the resulting complex to bind to either the LDLr or to CD81. […]

[5] = tested on: normal human foreskin fibroblasts (FSF); test: Cell binding assay by flow cytometry, human foreskin fibroblasts (FSF); assay type: cell-based
Description: (§3) FIG. 4D: Binding of recombinant HCV E2 and E2-LDL to human fibroblasts (FSF) and human fibroblasts negative for the human LDLr (Null). Cells were detached non-enzymatically and incubated with E2 or E2/LDL proteins. Cell-bound E2 was detected with monoclonal anti-E2 antibody 108, followed by incubation with a secondary fluorescent labeled anti-human IgG. Cells were analyzed by flow cytometry.
as §2
(§4) The increased level of binding of both proteins to MOLT-4 cells may be due to an association between LDL and HCV E2 that enables the resulting complex to bind to either the LDLr or to CD81. To evaluate this interaction further, mouse 3T3 cells expressing only murine CD81 or cells expressing both murine and human CD81 were studied. […] Therefore, the enhanced E2 binding following incubation with LDL appears to require human LDLr expression on the cell surface. […]

[6] = tested on: human fibroblasts that do not express the human LDLr (Null); test: Cell binding assay by flow cytometry, LDLr-deficient fibroblasts (Null); assay type: cell-based
Description: as §3, §2, §4

B1: HCV E2: Purified recombinant HCV envelope glycoprotein E2 (Ala 384-Lys 715) expressed in CHO cells, obtained from Austral Biologicals (protein)
chain: ETHVTGGSAGHTVSGFVSLLAPGAKQNVQLINTNGSWHLNSTALNCNDSLNTGWLAGLFYHHKFNSSGCPERLASCRPLTDFDQGWGPISYANGSGPDQRPYCWHYPPKPCGIVPAKSVCGPVYCFTPSPVVVGTTDRSGAPTYSWGENDTDVFVLNNTRPPLGNWFGCTWMNSTGFTKVCGAPPCVIGGAGNNTLHCPTDCFRKHPDATYSRCGSGPWITPRCLVDYPYRLWHYPCTINYTIFKIRMYVGGVEHRLEAACNWTRGERCDLEDRDRSELSPLLLTTTQWQVLPCSFTTLPALSTGLIHLHQNIVDVQYLYGVGSSIASWAIK
HCV E2 detected in ELISA with murine McAb against human LDL as capture antibody ([1]; E2 alone vs E2 with LDL): only detected when complexed with LDL | Extent of E2 captured in relation to LDL concentration ([1]; increasing amounts of LDL): directly correlated to the LDL concentration used | E2 binding to MOLT-4 cells ([2]; E2 alone, 4° C.): bound to MOLT-4 cells | Amount of labeled LDL bound to MOLT-4 cells after preincubation of LDL with HCV-E2 ([2]; LDL up to concentrations of 2.5 μg/ml, 4° C.): the amount of LDL bound increased | LDL concentration at which the increase in E2 binding was saturable ([2]; MOLT-4 cells, 4° C.): > 2.5 µg/mL | HCV E2 binding to MOLT-4 cells stripped of lipoproteins by dextran sulfate ([2]; cell bound bovine lipoproteins removed with dextran sulfate): decreased | Amount of E2 bound to MOLT-4 cells after incubation with lipoproteins ([2]; human VLDL, LDL and HDL, bovine lipoproteins): increased | Amount of cell-bound E2 on MOLT-4 cells after preincubation with apoprotein B ([2]; preincubation with apoprotein B (apoB100)): did not increase the amount of cell-bound E2 | Amount of E2 protein bound to MOLT-4 cells after addition of LDL ([2]; preincubation with human LDL one hour at 4° C.): increased the amount of E2 protein bound | Binding of E2 protein to Huh-7 cells after preincubation with human LDL [3]: increased binding of E2 protein | E2 binding to 3T3 cells ([4]; 3T3 cells expressing human CD81 vs control 3T3 cells): bound only to 3T3 cells expressing human CD81 | Amount of cell bound HCV E2 on 3T3-human CD81 cells after preincubation with LDL ([4]; preincubation with LDL): did not increase the amount of cell bound HCV E2 | E2 binding to FSF fibroblasts ([5]; E2 alone): bound | E2 binding to LDLr-expressing fibroblasts when preincubated with LDL ([5]; preincubation with LDL): increased binding | E2 binding to Null fibroblasts ([6]; E2 alone): bound | Binding of E2-LDL complexes to Null cells compared with E2 alone ([6]; preincubation with LDL): equally to E2 alone
